Experimental data taken from the supplement of paper PMC10567573.

B1: RSPH3 (parent)
chain: QRLEEQERRHREEKERRKKQQWEI

Variants of: B1
Assay: protein stability index of a GFP-peptide fusion (GPS, HEK-293T) (PSI 1-6); higher = more stable
Details: c terminus: a fixed tail appended
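Note: lentivirally expressed fusions sorted by FACS into six bins by GFP to DsRed ratio, PSI derived from sequencing read proportions per bin multiplied by bin number.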

Q: For QRLEFQERRHREEKERRKKQQWEI [E5F], which protein stability index is on record?
A: 3.61

Q: Which protein stability index does the source give for QRLEIQERRHREEKERRKKQQWEI [E5I] here?
A: 4.62

Q: With QRLEYQERRHREEKERRKKQQWEI [E5Y] as the variant, how does the protein stability index read?
A: 4.28

Q: Which protein stability index does the source give for QRLESQERRHREEKERRKKQQWEI [E5S] here?
A: 4.5

Q: Which protein stability index does the source give for QRLETQERRHREEKERRKKQQWEI [E5T] here?
A: 4.01

Q: Which protein stability index does the source give for QRLECQERRHREEKERRKKQQWEI [E5C] here?
A: 4.38

Q: For QRLEHQERRHREEKERRKKQQWEI [E5H], which protein stability index is on record?
A: 4.59

Q: With QRLEEAERRHREEKERRKKQQWEI [Q6A] as the variant, how does the protein stability index read?
A: 4.9

Q: For QRLEEFERRHREEKERRKKQQWEI [Q6F], which protein stability index is on record?
A: 4

Q: With QRLEEIERRHREEKERRKKQQWEI [Q6I] as the variant, how does the protein stability index read?
A: 4.62

Q: Which protein stability index does the source give for QRLEEHERRHREEKERRKKQQWEI [Q6H] here?
A: 4.39

Q: For QRLEELERRHREEKERRKKQQWEI [Q6L], which protein stability index is on record?
A: 4.49

Q: For QRLEEMERRHREEKERRKKQQWEI [Q6M], which protein stability index is on record?
A: 3.96

Q: With QRLEEKERRHREEKERRKKQQWEI [Q6K] as the variant, how does the protein stability index read?
A: 4.19

Q: With QRLEEDERRHREEKERRKKQQWEI [Q6D] as the variant, how does the protein stability index read?
A: 4.6

Q: For QRLEEEERRHREEKERRKKQQWEI [Q6E], which protein stability index is on record?
A: 4.91

Q: For QRLEECERRHREEKERRKKQQWEI [Q6C], which protein stability index is on record?
A: 4.63

Q: With QRLEEGERRHREEKERRKKQQWEI [Q6G] as the variant, how does the protein stability index read?
A: 4.59

Q: For QILEEQERRHREEKERRKKQQWEI [R2I], which protein stability index is on record?
A: 3.83

Q: Which protein stability index does the source give for QFLEEQERRHREEKERRKKQQWEI [R2F] here?
A: 4.48

Q: Which protein stability index does the source give for QWLEEQERRHREEKERRKKQQWEI [R2W] here?
A: 3.79

Q: Which protein stability index does the source give for QVLEEQERRHREEKERRKKQQWEI [R2V] here?
A: 4.47

Q: With QKLEEQERRHREEKERRKKQQWEI [R2K] as the variant, how does the protein stability index read?
A: 4.26

Q: Which protein stability index does the source give for QQLEEQERRHREEKERRKKQQWEI [R2Q] here?
A: 4.94

Q: Which protein stability index does the source give for QLLEEQERRHREEKERRKKQQWEI [R2L] here?
A: 4.63

Q: For QGLEEQERRHREEKERRKKQQWEI [R2G], which protein stability index is on record?
A: 4.54

Q: With QELEEQERRHREEKERRKKQQWEI [R2E] as the variant, how does the protein stability index read?
A: 5.24

Q: With QMLEEQERRHREEKERRKKQQWEI [R2M] as the variant, how does the protein stability index read?
A: 4.06

Q: For QPLEEQERRHREEKERRKKQQWEI [R2P], which protein stability index is on record?
A: 4.1

Q: Which protein stability index does the source give for QYLEEQERRHREEKERRKKQQWEI [R2Y] here?
A: 4.07

Q: Which protein stability index does the source give for QNLEEQERRHREEKERRKKQQWEI [R2N] here?
A: 5.06

Q: Which protein stability index does the source give for QHLEEQERRHREEKERRKKQQWEI [R2H] here?
A: 4.53

Q: With QDLEEQERRHREEKERRKKQQWEI [R2D] as the variant, how does the protein stability index read?
A: 5.14

Q: For QCLEEQERRHREEKERRKKQQWEI [R2C], which protein stability index is on record?
A: 4.58

Q: Which protein stability index does the source give for QALEEQERRHREEKERRKKQQWEI [R2A] here?
A: 4.57

Q: Which protein stability index does the source give for QSLEEQERRHREEKERRKKQQWEI [R2S] here?
A: 5

Q: For QTLEEQERRHREEKERRKKQQWEI [R2T], which protein stability index is on record?
A: 5.02

Q: Which protein stability index does the source give for QRIEEQERRHREEKERRKKQQWEI [L3I] here?
A: 5

Q: For QRVEEQERRHREEKERRKKQQWEI [L3V], which protein stability index is on record?
A: 4.82

Q: For QRCEEQERRHREEKERRKKQQWEI [L3C], which protein stability index is on record?
A: 4.36

Q: For QRFEEQERRHREEKERRKKQQWEI [L3F], which protein stability index is on record?
A: 4.2

Q: For QRREEQERRHREEKERRKKQQWEI [L3R], which protein stability index is on record?
A: 5.08

Q: For QRWEEQERRHREEKERRKKQQWEI [L3W], which protein stability index is on record?
A: 4.06

Q: Which protein stability index does the source give for QRNEEQERRHREEKERRKKQQWEI [L3N] here?
A: 4.59

Q: Which protein stability index does the source give for QRDEEQERRHREEKERRKKQQWEI [L3D] here?
A: 4.82

Q: For QRGEEQERRHREEKERRKKQQWEI [L3G], which protein stability index is on record?
A: 4.75

Q: With QRMEEQERRHREEKERRKKQQWEI [L3M] as the variant, how does the protein stability index read?
A: 4.81

Q: For QRPEEQERRHREEKERRKKQQWEI [L3P], which protein stability index is on record?
A: 5

Q: With QRSEEQERRHREEKERRKKQQWEI [L3S] as the variant, how does the protein stability index read?
A: 4.91

Q: For QRHEEQERRHREEKERRKKQQWEI [L3H], which protein stability index is on record?
A: 4.54

Q: With QRTEEQERRHREEKERRKKQQWEI [L3T] as the variant, how does the protein stability index read?
A: 4.99

Q: For QRKEEQERRHREEKERRKKQQWEI [L3K], which protein stability index is on record?
A: 4.4

Q: For QREEEQERRHREEKERRKKQQWEI [L3E], which protein stability index is on record?
A: 5.28

Q: Which protein stability index does the source give for QRYEEQERRHREEKERRKKQQWEI [L3Y] here?
A: 4.43

Q: With QRAEEQERRHREEKERRKKQQWEI [L3A] as the variant, how does the protein stability index read?
A: 4.37

Q: Which protein stability index does the source give for QRQEEQERRHREEKERRKKQQWEI [L3Q] here?
A: 4.72

Q: For GRLEEQERRHREEKERRKKQQWEI [Q1G], which protein stability index is on record?
A: 4.83

Q: With WRLEEQERRHREEKERRKKQQWEI [Q1W] as the variant, how does the protein stability index read?
A: 4.13

Q: With VRLEEQERRHREEKERRKKQQWEI [Q1V] as the variant, how does the protein stability index read?
A: 4.81

Q: For MRLEEQERRHREEKERRKKQQWEI [Q1M], which protein stability index is on record?
A: 4.76

Q: Which protein stability index does the source give for LRLEEQERRHREEKERRKKQQWEI [Q1L] here?
A: 4.35

Q: Which protein stability index does the source give for ERLEEQERRHREEKERRKKQQWEI [Q1E] here?
A: 4.86

Q: With CRLEEQERRHREEKERRKKQQWEI [Q1C] as the variant, how does the protein stability index read?
A: 3.83

Q: Which protein stability index does the source give for PRLEEQERRHREEKERRKKQQWEI [Q1P] here?
A: 5.21

Q: With IRLEEQERRHREEKERRKKQQWEI [Q1I] as the variant, how does the protein stability index read?
A: 4.4

Q: With NRLEEQERRHREEKERRKKQQWEI [Q1N] as the variant, how does the protein stability index read?
A: 4.5

Q: For ARLEEQERRHREEKERRKKQQWEI [Q1A], which protein stability index is on record?
A: 4.69

Q: With HRLEEQERRHREEKERRKKQQWEI [Q1H] as the variant, how does the protein stability index read?
A: 5.33

Q: With DRLEEQERRHREEKERRKKQQWEI [Q1D] as the variant, how does the protein stability index read?
A: 4.59

Q: With TRLEEQERRHREEKERRKKQQWEI [Q1T] as the variant, how does the protein stability index read?
A: 4.78

Q: With YRLEEQERRHREEKERRKKQQWEI [Q1Y] as the variant, how does the protein stability index read?
A: 4.42

Q: With KRLEEQERRHREEKERRKKQQWEI [Q1K] as the variant, how does the protein stability index read?
A: 4.29

Q: Which protein stability index does the source give for FRLEEQERRHREEKERRKKQQWEI [Q1F] here?
A: 4.28

Q: Which protein stability index does the source give for RRLEEQERRHREEKERRKKQQWEI [Q1R] here?
A: 4.49

Q: Which protein stability index does the source give for SRLEEQERRHREEKERRKKQQWEI [Q1S] here?
A: 4.66

Q: Which protein stability index does the source give for QRLQEQERRHREEKERRKKQQWEI [E4Q] here?
A: 4.46

Q: With QRLCEQERRHREEKERRKKQQWEI [E4C] as the variant, how does the protein stability index read?
A: 4.38

Q: For QRLWEQERRHREEKERRKKQQWEI [E4W], which protein stability index is on record?
A: 4.04

Q: Which protein stability index does the source give for QRLKEQERRHREEKERRKKQQWEI [E4K] here?
A: 4.44

Q: With QRLHEQERRHREEKERRKKQQWEI [E4H] as the variant, how does the protein stability index read?
A: 4.18

Q: For QRLSEQERRHREEKERRKKQQWEI [E4S], which protein stability index is on record?
A: 4.84

Q: Which protein stability index does the source give for QRLIEQERRHREEKERRKKQQWEI [E4I] here?
A: 4.17

Q: For QRLVEQERRHREEKERRKKQQWEI [E4V], which protein stability index is on record?
A: 3.99

Q: For QRLGEQERRHREEKERRKKQQWEI [E4G], which protein stability index is on record?
A: 5.08

Q: For QRLDEQERRHREEKERRKKQQWEI [E4D], which protein stability index is on record?
A: 4.56

Q: With QRLREQERRHREEKERRKKQQWEI [E4R] as the variant, how does the protein stability index read?
A: 3.84

Q: With QRLMEQERRHREEKERRKKQQWEI [E4M] as the variant, how does the protein stability index read?
A: 4.1

Q: Which protein stability index does the source give for QRLLEQERRHREEKERRKKQQWEI [E4L] here?
A: 4.46

Q: With QRLFEQERRHREEKERRKKQQWEI [E4F] as the variant, how does the protein stability index read?
A: 4.47

Q: Which protein stability index does the source give for QRLTEQERRHREEKERRKKQQWEI [E4T] here?
A: 4.15

Q: Which protein stability index does the source give for QRLAEQERRHREEKERRKKQQWEI [E4A] here?
A: 4.21

Q: Which protein stability index does the source give for QRLPEQERRHREEKERRKKQQWEI [E4P] here?
A: 4.48

Q: For QRLYEQERRHREEKERRKKQQWEI [E4Y], which protein stability index is on record?
A: 3.67

Q: Which protein stability index does the source give for QRLNEQERRHREEKERRKKQQWEI [E4N] here?
A: 4.9
